Results published in article PMC6698660.

Target: His-tagged Sinorhizobium meliloti DnaN (β-sliding clamp) (Sinorhizobium meliloti)
Assay: BLI

Row | Substance | kon [M⁻¹ s⁻¹]
1 | MBP-Flag-IEP fusion protein (MF-IEP) of the RmInt1 intron, made in E. coli (natural protein) | 82000
2 | MF-IEP104 (MF-IEP carrying substitution L104A) (natural protein) | 44000
